Tested on: MS2 coat protein
Assay: apparent KD of MS2 coat protein; designed switch direction (-1 OFF switch, 1 ON switch): -1; higher = weaker reporter binding
Outline: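 Each step of the titration lasted 0.8–1.5 h at the lowest concentration and 10–20 min at the highest. The protein, SNAP-549-labelled MS2 coat protein, went from 0.7 or 1.5 nM doubling to 3 µM over RNA switches transcribed on Illumina chips by stalled E. coli RNA polymerase. Normalised cluster fluorescence was curve-fitted, and the per-design median over clusters is given as apparent KD.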

[1] = input ligand: microRNA oligo, concentration not stated
[2] = Eterna round: R95, input ligand: FMN 200 uM
[3] = Eterna round: R95, input ligand: microRNA oligo, concentration not stated
[4] = Eterna round: R95, input ligand: none

Sequence: CUAAAUCAUGUAGGAUAUGCGUGGCAAAGCUAUGCAGAAGGACAUGAGGAUCACCCAUGUCAUUCCGUCUGGAGACAGACGGGA [Mat - Exclusion NG 1 - Mod of JL - D54] (Eterna round: R96, puzzle: Exclusion NG 1)
- apparent KD of MS2 coat protein (input ligand: FMN 200 uM): 182 nM
- apparent KD of MS2 coat protein [1]: 20.7 nM
- apparent KD of MS2 coat protein (input ligand: none): 25 nM

Sequence: CUAAAUCAUGUAGGAUAUGCGUGGCAAAGCUAUGCAGAAGGACAUGAGGAUCACCCAUGUCUUUCCGUCUGAGUACAGACGGGA [Mat - Exclusion NG 1 - Mod of JL - D46] (Eterna round: R96, puzzle: Exclusion NG 1)
- apparent KD of MS2 coat protein (input ligand: FMN 200 uM): 166 nM
- apparent KD of MS2 coat protein [1]: 21.7 nM
- apparent KD of MS2 coat protein (input ligand: none): 26.6 nM

Sequence: CUAAUUCAAGGAUAUACAUGAGGAUCACCCAUGUGAGGGAGUGACAAGUUGUCGGGAUGUAGAAGGUGACCUAG [Eternabot (L2) Solution 36] (Eterna round: R97, puzzle: Exclusion 3)
- apparent KD of MS2 coat protein (input ligand: FMN 200 uM): 417 nM
- apparent KD of MS2 coat protein (input ligand: none): 411 nM

Sequence: CUACCCUCAGGAUAUUUUGCACUGUACAUGAGGAUCACCCAUGUGACGUCUGUUAAUCAAAGAGAAGGGAGAGGUG [Eternabot (L1) Solution 27] (Eterna round: R97, puzzle: Exclusion 5)
- apparent KD of MS2 coat protein (input ligand: FMN 200 uM): 19.7 nM
- apparent KD of MS2 coat protein (input ligand: none): 25.1 nM

Sequence: CUACUGAAGCUUUGCUUUAGUCGACAUGAGGAUCACCCAUGUUAGGAUAUGGUAGGCUUUGCUUACUAGAAGGAUAGAGUGAUC [salish99_ExNG3_r04_603] (Eterna round: R96, puzzle: Exclusion NG 3)
- apparent KD of MS2 coat protein (input ligand: FMN 200 uM): 121 nM
- apparent KD of MS2 coat protein [1]: 55.9 nM
- apparent KD of MS2 coat protein (input ligand: none): 54.8 nM

Sequence: CUACUGAAGCUUUGCUUUAGUCGUACAUGAGGAUCACCCAUGUAGGAUAUACAUGAGGAUCACCCAUAGAAGGAUAGAGUGAUC [salish99_ExNG3_r04_602] (Eterna round: R96, puzzle: Exclusion NG 3)
- apparent KD of MS2 coat protein (input ligand: FMN 200 uM): 36.1 nM
- apparent KD of MS2 coat protein [1]: 31.2 nM
- apparent KD of MS2 coat protein (input ligand: none): 38.6 nM

Sequence: CUAGAUCUUCGGAUCUAGUACAUGAGGAUCACCCAUGUUACGAGCAGAUCUUCAUACAAGCUUUUUGCUCGUCUUAU [Sensor v3 - Turn-off variant 1 - 33] (puzzle: Sensor v3, turn-off variant 1)
- apparent KD of MS2 coat protein [2]: 33.4 nM
- apparent KD of MS2 coat protein [3]: 19.5 nM
- apparent KD of MS2 coat protein [4]: 30.7 nM

Sequence: CUAGCGAAUGUAGGAUAUCGGACUGUUUCAGUCUGAGAAGGACAUGAGGAUCACCCAUGUGAAGCUACGUGAGUAGCACGCUAG [JL ENG1 3.86] (Eterna round: R96, puzzle: Exclusion NG 1)
- apparent KD of MS2 coat protein (input ligand: FMN 200 uM): 111 nM
- apparent KD of MS2 coat protein [1]: 18.7 nM
- apparent KD of MS2 coat protein (input ligand: none): 23.2 nM

Sequence: CUAGCUUCGGCUAGUACAAGCUUUUUGCUCGUCUUAUUAACAUGAGGAUCACCCAUGUACAAGAGACCUCAUGUAUU [Sensor v3 - turn-off variant 2 - 10] (puzzle: Sensor v3, turn-off variant 2)
- apparent KD of MS2 coat protein [2]: 188 nM
- apparent KD of MS2 coat protein [3]: 14.6 nM
- apparent KD of MS2 coat protein [4]: 249 nM

Sequence: CUAGGGCACAAUUAAACACCCUAACAUGAGGAUCACCCAUGUCAGGAUAUGUAGGCAAAGACCCUACAGAAGGGACAUGUCCUA [Laus] (Eterna round: R96, puzzle: Exclusion NG 3)
- apparent KD of MS2 coat protein (input ligand: FMN 200 uM): 21.1 nM
- apparent KD of MS2 coat protein [1]: 9.38 nM
- apparent KD of MS2 coat protein (input ligand: none): 15.2 nM

Sequence: CUAGUAUAUCAGGAUAUGAUUUUAUAUAUUGGAUCAGAAGGGAUGACAUGAGGAUCACCCAUGUUGAGGAGUGA [JR_Ex6_Sub039] (Eterna round: R97, puzzle: Exclusion 6)
- apparent KD of MS2 coat protein (input ligand: FMN 200 uM): 257 nM
- apparent KD of MS2 coat protein (input ligand: none): 103 nM

Sequence: CUAGUGUAAGGAUAUGCCUGGCCGUGAGGCCAGAUUGAAUAGCAGAAGGUACAUGAGGAUCACCCAUGUACGGG [jl-ex4-4.62 ViennaUCT mod] (Eterna round: R97, puzzle: Exclusion 4)
- apparent KD of MS2 coat protein (input ligand: FMN 200 uM): 279 nM
- apparent KD of MS2 coat protein (input ligand: none): 26.4 nM

Sequence: CUAUAAGGUGUUAGGAUAUCGGCUCGAGGUACUAGCGAGAAGGAACAUGAGGAUCACCCAUGUGGUCAUGAUUU [Eternabot (L2) Solution 60] (Eterna round: R97, puzzle: Brourd's mod of Exclusion 4)
- apparent KD of MS2 coat protein (input ligand: FMN 200 uM): 152 nM
- apparent KD of MS2 coat protein (input ligand: none): 139 nM

Sequence: CUAUUCCGAGGAUAUACAUGAGGAUCACCCAUGUCGGGCCUCCGCGUUUCGCGCCUCAGUAGAAGGCGGGUUUC [JL Riri mod 1] (puzzle: Exclusion 3)
- apparent KD of MS2 coat protein [3]: 18.3 nM

Sequence: CUCAAACAUGAGGAUCACCCAUGUGAGGAUAUGAUGCGAUCGUCGAAAGACGAUAGCAUCAGAAGGUACAAAUG [Fiskers Ex 1 - 23] (puzzle: Exclusion 1)
- apparent KD of MS2 coat protein [2]: 37.7 nM
- apparent KD of MS2 coat protein [3]: 37.9 nM
- apparent KD of MS2 coat protein [4]: 54.2 nM

Sequence: CUCACGUCAGGAUAUCUACAUUAAAUUGGUAACCAAGCAUGAGAGAAGGGACAUGAGGAUCACCCAUGUAAAAC [Ceisusma] (Eterna round: R97, puzzle: Exclusion 4)
- apparent KD of MS2 coat protein (input ligand: FMN 200 uM): 42.4 nM
- apparent KD of MS2 coat protein (input ligand: none): 48.7 nM

Sequence: CUCAUGUCAGGAUAUUAAGUCCGUAGCCUAUGGCUGCAACAUGAGAAGGGACAUGAGGAUCACCCAUGUCGGGA [Edceleon] (puzzle: Exclusion 4)
- apparent KD of MS2 coat protein [3]: 34.3 nM

Sequence: CUCAUGUGAGGAUAUGUGCUGAUCUGUACUGUGAUUAGAGAACAGAAGGUACAUGAGGAUCACCCAUGUACACG [Eternabot (L2) Solution 46] (Eterna round: R97, puzzle: Exclusion 4)
- apparent KD of MS2 coat protein (input ligand: FMN 200 uM): 354 nM
- apparent KD of MS2 coat protein (input ligand: none): 14.7 nM

Sequence: CUCAUUAGUCAGGAUAUCGUGUGGGUAAUUGUACGAGAAGGGACGACAUGAGGAUCACCCAUGUGGUCUUUGGG [JR_Ex6_Sub085] (Eterna round: R97, puzzle: Exclusion 6)
- apparent KD of MS2 coat protein (input ligand: FMN 200 uM): 70.6 nM
- apparent KD of MS2 coat protein (input ligand: none): 165 nM

Sequence: CUCCGGCGUGUAGGAUAUGGAUCCGAUUAGGAUCCAGAAGGACAUGAGGAUCACCCAUGUACAUGUAAACAGUCGUCACCGGGC [salish99_ExNG1_r04_206] (Eterna round: R96, puzzle: Exclusion NG 1)
- apparent KD of MS2 coat protein (input ligand: FMN 200 uM): 75.9 nM
- apparent KD of MS2 coat protein [1]: 14 nM
- apparent KD of MS2 coat protein (input ligand: none): 18.1 nM

Sequence: CUCCUACAUGAGGAUCACCCAUGUCAGGAUAUCUCAGUAGCACCUAAAGGUGCUACCCAGAGAAGGGACGUGCA [Enororce] (puzzle: Exclusion 1)
- apparent KD of MS2 coat protein [3]: 11.1 nM

Sequence: CUCGCUGUGGUUAGGAUAUGUGGGUUAGCAGGCGCAUAGAAGGAACAUGAGGAUCACCCAUGUGGGUUGGUGCG [Eternabot (L2) Solution 88] (Eterna round: R97, puzzle: Brourd's mod of Exclusion 4)
- apparent KD of MS2 coat protein (input ligand: FMN 200 uM): 39.4 nM
- apparent KD of MS2 coat protein (input ligand: none): 62.7 nM

Sequence: CUCGUGCGGCUUUGCUGUGCGGGUACAUGAGGAUCACCCAUGUAGGAUAUGGUGCGCUUUGCGUGCCAGAAGGGCGUGCGUUGG [salish99_ExNG3_r04_011] (Eterna round: R96, puzzle: Exclusion NG 3)
- apparent KD of MS2 coat protein (input ligand: FMN 200 uM): 36.6 nM
- apparent KD of MS2 coat protein [1]: 27.1 nM
- apparent KD of MS2 coat protein (input ligand: none): 27.3 nM

Sequence: CUCGUGUGAGGAUAUCUAUUCCACGGACGGGAGUCUUGAAGAGAGAAGGCACAUGAGGAUCACCCAUGUAAUAA [Latequ] (puzzle: Exclusion 4)
- apparent KD of MS2 coat protein [3]: 107 nM

Sequence: CUCUGUGCAAAGGAUAUGUGAACAGGUCUAAUAACAGAAGGUUGCACUUGAGGAUCACCCAAGUUAAAGGGACC [Ortebi] (Eterna round: R97, puzzle: Exclusion 6)
- apparent KD of MS2 coat protein (input ligand: FMN 200 uM): 517 nM
- apparent KD of MS2 coat protein (input ligand: none): 462 nM

Sequence: CUCUUGUCAGGAUAUCUUACAUAACAAUCGUAGUUACAAUUGGAGAAGGGACAUGAGGAUCACCCAUGUUAGCG [tap-tap-tappy34] (Eterna round: R97, puzzle: Exclusion 4)
- apparent KD of MS2 coat protein (input ligand: FMN 200 uM): 337 nM
- apparent KD of MS2 coat protein (input ligand: none): 149 nM

Sequence: CUCUUGUGAGGAUAUCGAAGAAAAGAAAAGAAAGAAAAGAACGAGAAGGCACAUGAGGAUCACCCAUGUAAGAA [EteRNA is fun!] (Eterna round: R96, puzzle: Exclusion 4)
- apparent KD of MS2 coat protein (input ligand: FMN 200 uM): 127 nM
- apparent KD of MS2 coat protein [1]: 30.4 nM
- apparent KD of MS2 coat protein (input ligand: none): 39.4 nM

Sequence: CUGAACCCGGUAGGAUAUAUUGUGGGCGGGCGUGGAACGACAUGAGGAUCACCCAUGUAAUUGAGGUAGAAGGGCCGAGAGAUU [Excl-NG2-LRO15] (Eterna round: R96, puzzle: Exclusion NG 2)
- apparent KD of MS2 coat protein (input ligand: FMN 200 uM): 37.9 nM
- apparent KD of MS2 coat protein [1]: 23 nM
- apparent KD of MS2 coat protein (input ligand: none): 46.4 nM

Sequence: CUGAAUAGAGGAUAUUGUACUGCUGACAUGAGGAUCACCCAUGUAUGUUAACUCGGCCGUCGAGAAGGCUAACAAA [BotMod 13 - Jieux - Exclusion 5] (Eterna round: R97, puzzle: Exclusion 5)
- apparent KD of MS2 coat protein (input ligand: FMN 200 uM): 16.9 nM
- apparent KD of MS2 coat protein (input ligand: none): 41.2 nM

Sequence: CUGAGCAGACGGAAAUCCAACAUGAGGAUCACCCAUGUCUCAAAAGCUUUUUGCUCGUCUUAUCUUCCUCUGCUCUC [Cecelein] (puzzle: Sensor v3, turn-off variant 1)
- apparent KD of MS2 coat protein [2]: 12.9 nM
- apparent KD of MS2 coat protein [3]: 16.8 nM
- apparent KD of MS2 coat protein [4]: 11.8 nM

Sequence: CUGAGCAGACGGAGAUCCAACAUGAGGAUCACCCAUGUCUCAAAAGCUUUCUGCUCGUCUUAUCCUCCUCUGUUCUC [Engeonrati] (puzzle: Sensor v3, turn-off variant 1)
- apparent KD of MS2 coat protein [2]: 129 nM
- apparent KD of MS2 coat protein [3]: 205 nM
- apparent KD of MS2 coat protein [4]: 151 nM

Sequence: CUGAGCAGACGGAGAUCCAACAUGAGGAUCACCCAUGUCUCAAAAGCUUUUUGCUCGUCUUAUCCUCCUCUGUUCAC [Esquitian 1] (Eterna round: R97, puzzle: Sensor, turn-off variant 1)
- apparent KD of MS2 coat protein (input ligand: FMN 200 uM): 26.4 nM
- apparent KD of MS2 coat protein (input ligand: none): 26 nM

Sequence: CUGAGGUAGCGGUCCUAUGACAUGAGGAUCACCCAUGUACCUUGCUACAAGCUUUUUGCUCGUCUUAUGAUUCUCGG [JL Atriat mod 8] (Eterna round: R96, puzzle: Sensor v3, turn-off variant 1)
- apparent KD of MS2 coat protein (input ligand: FMN 200 uM): 81.3 nM
- apparent KD of MS2 coat protein [1]: 154 nM
- apparent KD of MS2 coat protein (input ligand: none): 82.7 nM

Source: the supplement of paper PMC9170038
